± gives the standard error.
B1: library; numbered along this chain (parent)
chain: MATDAALRRLLRLHRTEIAVAVDSAFPLLHALADHDVVPEDKFQETLHLKEKEGCPQAFHALLSWLLTQDSTAILDFWRVLFKDYNLERYGRLQPILDSFPKDVDLSQPRKGRKPPAVPKALVPPPRLPTKRKASEEARAAAPAALTPRGTASPGSQLKAKPPKKPESSAEQQRLPLGNGIQTMSASVQRAVAMSSGDVPGARGAVEGILIQQVFESGGSKKCIQVGGEFYTPSKFEDSGSGKNKARSSSGPKPLVRAKGAQGAAPGGGEARLGQQGSVPAPLALPSDPQLHQKNEDECAVCRDGGELICCDGCPRAFHLACLSPPLREIPSGTWRCSSCLQATVQEVQPRAEEPRPQEPPVETPLPPGLRSAGEEVRGPPGEPLAGMDTTLVYKHLPAPPSAAPLPGLDSSALHPLLCVGPEGQQNLAPGARCGVCGDGTDVLRCTHCAAAFHWRCHFPAGTSRPGTGLRCRSCSGDVTPAPVEGVLAPSPARLAPGPAKDDTASHEPALHRDDLESLLSEHTFDGILQWAIQSMARPAAPFPS

Variants of: B1
Experiment: AIRE transcriptional activation functional score (insulin promoter-GFP; nonsense median 0, synonymous median 1) (normalised score); higher = higher AIRE activity (more reporter activation)
Details: with insulin promoter-GFP reporter in HEK293
How it was run: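 Flp-In T-REx HEK293 landing-pad cells carrying an insulin core promoter-GFP reporter received codon-optimized AIRE NNN-codon libraries (three regions) through Bxb1 recombinase. Sorting of mCherry+, BFP− integrants took place at day 7, followed by 7 days of expansion and tile-sequencing of top 10% GFP and unselected integrant populations. A functional score was derived from select versus non-select variant enrichment with wild type subtracted. Values from variants reaching 10 counts per million in non-select were set to nonsense median 0 and synonymous median 1 and averaged over biological replicates.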

Row | Variant | AIRE transcriptional activation functional score
1 | L327E | 0.71 ± 0.14
2 | L49Y | 0.268 ± 0.6
3 | L49C | -0.191 ± 0.94
4 | T183G | 0.735 ± 0.22
5 | T183I | 0.211 ± 0.1
6 | S411H | 0.897 ± 0.04
7 | V279P | 1.06 ± 0.19
8 | V279L | 1 ± 0.24
9 | A73G | -0.592 ± 0.48
10 | L273V | 1.02 ± 0.25
11 | V226H | 0.579 ± 0.27
12 | T524C | 1.47 ± 0.16
13 | R513D | 0.928 ± 0.061
14 | R513H | 0.0273 ± 0.075
15 | P405L | 0.801 ± 0.35
16 | Q157P | 1.1 ± 0.25
17 | Q276S | 0.925 ± 0.17
18 | A343G | 0.94 ± 0.21
19 | A450T | 0.632 ± 0.29
20 | P499R | 0.761 ± 0.13
21 | P101H | 1.17 ± 0.39

Row | Variant | AIRE transcriptional activation functional score
22 | V22S | -0.103 ± 0.51
23 | S185I | 0.353 ± 0.38
24 | R316H | 1.36 ± 0.43
25 | H60E | -0.56 ± 0.42
26 | H60T | 0.117 ± 0.24
27 | H60F | 1.06 ± 0.24
28 | G54C | 0.165 ± 0.19
29 | I533D | 0.569 ± 0.14
30 | I533W | 0.193 ± 0.14
31 | I533Q | 0.144 ± 0.029
32 | R356C | 1.05 ± 0.071
33 | P126N | 0.042 ± 0.11
34 | E359M | 1.08 ± 0.08
35 | E359N | 0.928 ± 0.13
36 | C310S | 0.768 ± 0.27
37 | E45W | 1.17 ± 0.13
38 | E45Q | 1.17 ± 0.82
39 | E45C | -2.39 ± 0.2
40 | T68A | 0.312 ± 0.28
41 | L106Q | -0.722 ± 0.74
42 | W78M | 0.308 ± 0.063

Row | Variant | AIRE transcriptional activation functional score
43 | W78K | 0.0822 ± 0.16
44 | W78V | -0.0156 ± 0.41
45 | W78Y | 0.346 ± 0.1
46 | A144H | 0.0775 ± 0.4
47 | S332F | 1.34 ± 0.16
48 | L341A | 0.936 ± 0.45
49 | D304V | 0.99 ± 0.34
50 | A264K | 0.671 ± 0.041
51 | A264Y | -0.0795 ± 0.11
52 | V443T | 0.921 ± 0.095
53 | L47W | -0.717 ± 0.15
54 | S153T | 0.818 ± 0.56
55 | P365K | 1.17 ± 0.27
56 | R471K | 0.921 ± 0.077
57 | R471L | 0.799 ± 0.34
58 | A193P | 0.42 ± 0.48
59 | L75M | 0.71 ± 0.18
60 | G424R | 1.03 ± 0.21
61 | Q425T | 0.973 ± 0.3
62 | L366N | 0.777 ± 0.071
63 | T232H | 0.729 ± 0.14

Row | Variant | AIRE transcriptional activation functional score
64 | T232Y | 0.775 ± 0.18
65 | I181F | 1.59 ± 0.068
66 | L414V | 1.1 ± 0.41
67 | R127Q | 0.887 ± 0.18
68 | G369K | 1.35 ± 0.088
69 | A202K | 0.112 ± 0.15
70 | V393P | 0.254 ± 0.38
71 | V393W | 1.67 ± 0.17
72 | T334Q | 0.621 ± 0.44
73 | V345L | 1.03 ± 0.23
74 | V345E | 0.982 ± 0.059
75 | V192T | 0.917 ± 0.3
76 | V192D | 0.613 ± 0.17
77 | K52Q | -0.353 ± 0.24
78 | P490Q | 0.417 ± 0.47
79 | P490K | 1.17 ± 0.029
80 | R203I | 1.2 ± 0.34
81 | R203A | 1.19 ± 0.18
82 | C322W | 0.487 ± 0.025
83 | S168A | 0.888 ± 0.66
